Test results as given in patent US10889629B2, “Transfected T-cells and T-cell receptors for use in immunotherapy against cancers” (IMMATICS BIOTECHNOLOGIES GMBH, priority 2016, dated 2021).
Entries after “also recorded” stand apart in the source; their conditions may differ.

What was measured:
HLA-A*0201 molecule = HLA-A*0201 molecule (Homo sapiens, UniProt P04439, D140Y/D185E/D98H/E176V/E277Q/G131W/G231S/I119V/I121R/I166T/I218V/L300P/L318F/N151K/N90K/P208A/P217A/Q86G/Q94H/R138H/R169H/T345S); conditions: cited from earlier work
MHC/MAG-003 tetramer = MHC/MAG-003 tetramer (Homo sapiens, UniProt P04439+P43358, D140Y/D185E/D98H/E176V/E277Q/G131W/G231S/I119V/I121R/I166T/I218V/N151K/N90K/P208A/P217A/Q86G/Q94H/R138H/R169H); test: Tetramer staining of TCR-RNA-electroporated CD8+ T-cells, MHC/MAG-003 tetramer; type: binding
Source text: (§1) FIG. 8 show MHC/MAG-003 tetramer or MHC/NYESO1-001 tetramer staining of CD8+ T-cells electroporated with alpha and beta chain RNA of TCRs R7P1 D5, R20P1H7 and R10P2G12 (Table 2), respectively. CD8+ T-cells electroporated with RNA of 1G4 TCR that specifically binds to MHC/NYESO1-001 complex and mock electroporated CD8+ T-cells served as controls.
(§2) T-cell activation was further confirmed using a tetramer staining technique to detect MHC/MAG-003-binding activated cytotoxic T-cells. As shown in FIG. 8 and Table 11, a higher percentage of TCR-expressing CD8+ T-cells were stained positive fluorescent-labeled MHC/MAG-003 tetramer than that with MHC/NYESO1-001 control tetramer or mock control. […] The alpha and beta chains of TCR 1G4 are shown in SEQ ID NO:89 and 90, respectively: […]

MHC/NYESO1-001 tetramer = test: Tetramer staining of TCR-RNA-electroporated CD8+ T-cells, MHC/NYESO1-001 control tetramer; type: binding, human
Source text: as §1, §2

[1] = system: A-375 (human melanoma cell line, positive for HLA-A2 and MAG-003 expression); test: IFNγ release, TCR-expressing CD8+ T-cells co-incubated with A-375; type: cell-based; conditions: for IFNγ release: Example 4, A-375, HLA-A2-positive and MAG-003-positive; for T-cell activation (IFN-γ release): Example 6, A-375 expressing HLA-A*02 and MAGEA4
Procedure: (§3) To determine efficacy of T-cells expressing TCRs described herein, primary CD8+ T-cells electroporated with RNA of the TCRs R7P1 D5, R20P1H7 and R10P2G12 were co-incubated with different human cancer cell lines, e.g., A-375 (human melanoma cell line, which is positive for HLA-A2 and MAG-003 expression), T98G (human glioblastoma cell line, which is HLA-A2-positive and MAG-003-negative), and SK-BR-3 (human breast cancer cell line, which is HLA-A2-negative and MAG-003-negative), followed by IFNγ release assay.
(§4) TCRs of interest were expressed in human T cells via RNA electroporation and the T cells were assessed for IFN-γ release after co-culture with different target cells, such as T2 cells loaded with different peptides as well as tumor cell lines and primary cells from healthy tissues. T-cell activation data are shown in absolute IFN-γ levels or a normalized way as indicated below.
(§5) Efficacy of CD8+ T cells expressing TCRs R7P1 D5, R10P2G12 and R20P1H7 was determined by T cell activation studies (IFN-γ release) using different tumor cell lines as target cells. The characterization of the safety profile of TCRs of interest was approached by testing the potential activation of TCR-expressing T cells upon co-culture with isolated primary cell types from healthy tissues and induced pluripotent stem cell (iPSC)-derived cell types from HLA-A*02-positive donors (Table 13). Cell types were selected in a manner to cover most of the critical organs like e.g. brain, heart and liver and different cell types as epithelium, endothelium or smooth muscle. Tumor cell lines were analyzed side-by-side as positive and negative controls.
(§6) Normalization Method for IFNγ Release: Meannorm(TCRoi;co)=[mean(TCRoi;co)−mean(TCRoi;effector only)]−[mean(mock;co)−mean(mock;effector only)]

[2] = system: T98G (human glioblastoma cell line, HLA-A2-positive and MAG-003-negative); test: IFNγ release, TCR-expressing CD8+ T-cells co-incubated with T98G; type: cell-based; conditions: Example 4, T98G, compared with effector cell only control
Procedure: as §3

[3] = system: SK-BR-3 (human breast cancer cell line, HLA-A2-negative and MAG-003-negative); test: IFNγ release, TCR-expressing CD8+ T-cells co-incubated with SK-BR-3; type: cell-based; conditions: Example 4, SK-BR-3, compared with effector cell only control
Procedure: as §3

[4] = system: human non-small cell cancer cell line, H1755 (NCI-H1755); test: IFNγ release, TCR-expressing CD8+ T-cells co-incubated with H1755; type: cell-based; conditions: for T-cell activation (IFN-γ release): Example 6, NCI-H1755 expressing HLA-A*02 and MAGEA4
Procedure: as §3, §4, §5, §6

[5] = system: HLA-A*02 positive cell types from healthy tissues; test: Safety: IFN-γ release upon co-culture with primary and iPSC-derived cell types from healthy tissues; type: cell-based, human; conditions: E:T ratio 1:1, 20 h, ELISA, normalized
Source text: FIG. 13 T cells transfected with RNA coding for TCR R7P1 D5, R10P2G12, R20P1H7, mock or the control TCR 1G4 (SEQ ID NO:X) were co-cultured with different primary human healthy tissue cells (see table 13 for abbreviations), the target negative tumor cell line MCF-7 and the MAGEA4- and NY-ESO1-positive cell lines A-375 and NCI-H1755. TCRs R7P1D5, R10P2G12, R20P1H7 and 1G4 expression in T cells was achieved by electroporation using an RNA vector. […] E:T ratio 1:1, 20,000 cells each, mean of IFN-γ release after 20 h from replicates is shown as measured by ELISA. Error bars indicate standard deviations. Results were normalized by subtraction of IFN-γ release from TCR-transfected T cells only and IFN-γ release due to co-culture of Target cells and T cells not expressing TCR of interest.
as §4, §5, §6
The respective CVnorm was calculated: CVnorm(TCRoi;co)=[CV(TCRoi;co)^2+CV(TCRoi;effector only)^2+CV(mock;co)^2+CV(mock;effector only)^2]^[½] TCRoi=effector cells expressing TCR of interest Mock=effector cells without exogenous TCR expression Co=effector cells co-cultured with target cells Effector only=effector cells not co-cultured Mean(norm)=mean IFNγ release (normalized) CV(norm)=coefficient of variation (normalized) Results: […]

MHC/MAG-003 complex = molecular target: T1, MHC/MAG-003 complex (Homo sapiens, UniProt P04439+P43358, D140Y/D185E/D98H/E176V/E277Q/G131W/G231S/I119V/I121R/I166T/I218V/L300P/L318F/N151K/N90K/P208A/P217A/Q86G/Q94H/R138H/R169H/T345S); test: IFN-γ release assay: TCR-RNA-electroporated CD8+ T-cells co-incubated with peptide-loaded target cells; type: cell-based; conditions: target peptide (MAG-003) titration, IFN-γ release
T1 construct: endogenous in cells
Procedure: In another aspect, to obtain T-cells expressing TCRs of the present description, TCR RNAs were synthesized by techniques described in the art, e.g., in vitro transcription systems. The in vitro-synthesized TCR RNAs were then introduced into primary CD8+ T-cells obtained from healthy donors by electroporation to re-express tumor specific TCR-alpha and/or TCR-beta chains.
To determine specificity and affinity of TCRs, the transformed CD8+ T-cells were co-incubated with MAG-003-loaded target cells or with target cells loaded with homologous but unrelated peptide RABGAP1L-001 (SEQ ID NO:91), AXIN1-001 (SEQ ID NO:92), ANO5-001 (SEQ ID NO:93), TPX2-001 (SEQ ID NO:94), SYNE3-001 (SEQ ID NO:95), MIA3-001 (SEQ ID NO:96), HERC4-001 (SEQ ID NO:97), PSME2-001 (SEQ ID NO:98), HEATR5A-001 (SEQ ID NO:99) or CNOT1-003 (SEQ ID NO:100) or control peptide NYESO1-001 (SEQ ID NO:101), followed by IFN-γ release assay. Unloaded target cells and CD8+ T-cells alone served as controls. IFN-γ secretion from CD8+ T-cells is indicative of T-cell activation with cytotoxic activity.
As shown in FIGS. 5-7 all primary CD8+ T-cells transformed with TCRs of the present disclosure, after co-incubation with MAG-003-loaded target cells, released much higher levels of IFN-γ than that stimulated by unrelated peptide-loaded target cells, and the controls.

| % MAG-003 TET-positive primary CD8+ T-cells (MHC/MAG-003 tetramer) | EC50 (MHC/MAG-003 complex) | Molecule | binding affinity and stability towards HLA-A*0201 molecule (HLA-A*0201 molecule) | % NYESO1-001 TET-positive primary CD8+ T-cells (MHC/NYESO1-001 tetramer) | IFNγ release [1] | T-cell activation (IFN-γ release) [1] | IFNγ release [2] | IFNγ release [3] | T-cell activation (IFN-γ release) [4] | T-cell activation (IFN-γ release) by healthy tissue cells [5] | IFNγ release ([4]; Example 4, H1755, data not shown) | T-cell activation (IFN-γ release) by healthy tissue cells ([5]; listed as R7P1 D5) |
| --- | --- | --- | --- | --- | --- | --- | --- | --- | --- | --- | --- | --- |
|  |  | YLLEHVVRV (listed as Homo sapiens) [p286-1Y2L] | potent binding affinity and stability |  |  |  |  |  |  |  |  |  |
| 5.38% |  | R10P2G12: TCR, alpha chain SEQ ID NO:71 and beta chain SEQ ID NO:79, MAG-003-specific (protein, listed as Homo sapiens) alpha: MLTASLLRAVIASICVVSSMAQKVTQAQTEISVVEKEDVTLDCVYETRDTTYYLFWYKQPPSGELVFLIRRNSFDEQNEISGRYSWNFQKSTSSFNFTITASQVVDSAVYFCALSEGNSGNTPLVFGKGTRLSVIANIQNPDPAVYQLRDSKSSDKSVCLFTDFDSQTNVSQSKDSDVYITDKTVLDMRSMDFKSNSAVAWSNKSDFACANAFNNSIIPEDTFFPSPESSCDVKLVEKSFETDTNLNFQNLSVIGFRILLLKVAGFNLLMTLRLWSS beta: MGIRLLCRVAFCFLAVGLVDVKVTQSSRYLVKRTGEKVFLECVQDMDHENMFWYRQDPGLGLRLIYFSYDVKMKEKGDIPEGYSVSREKKERFSLILESASTNQTSMYLCASSLSSGSHQETQYFGPGTRLLVLEDLKNVFPPEVAVFEPSEAEISHTQKATLVCLATGFYPDHVELSWWVNGKEVHSGVSTDPQPLKEQPALNDSRYCLSSRLRVSATFWQNPRNHFRCQVQFYGLSENDEWTQDRAKPVTQIVSAEAWGRADCGFTSESYQQGVLSATILYEILLGKATLYAVLVSALVLMAMVKRKDSRG |  | 0.87% | IFNγ release was observed | activity | basal levels of IFNγ release | basal levels of IFNγ release | activity | no activation was observed; also recorded: did not lead to significant TCR-mediated recognition and T-cell activation |  |  |
| 7.99% | ~3 nM | R7P1D5: TCR, alpha chain SEQ ID NO:55 and beta chain SEQ ID NO:63, MAG-003-specific, from HLA-A2 positive donor (protein, listed as Homo sapiens) alpha: MKTFAGFSFLFLWLQLDCMSRGEDVEQSLFLSVREGDSSVINCTYTDSSSTYLYWYKQEPGAGLQLLTYIFSNMDMKQDQRLTVLLNKKDKHLSLRIADTQTGDSAIYFCAEYSSASKIIFGSGTRLSIRPNIQNPDPAVYQLRDSKSSDKSVCLFTDFDSQTNVSQSKDSDVYITDKTVLDMRSMDFKSNSAVAWSNKSDFACANAFNNSIIPEDTFFPSPESSCDVKLVEKSFETDTNLNFQNLSVIGFRILLLKVAGFNLLMTLRLWSS beta: MGSWTLCCVSLCILVAKHTDAGVIQSPRHEVTEMGQEVTLRCKPISGHDYLFWYRQTMMRGLELLIYFNNNVPIDDSGMPEDRFSAKMPNASFSTLKIQPSEPRDSAVYFCASRANTGELFFGEGSRLTVLEDLKNVFPPEVAVFEPSEAEISHTQKATLVCLATGFYPDHVELSWWVNGKEVHSGVSTDPQPLKEQPALNDSRYCLSSRLRVSATFWQNPRNHFRCQVQFYGLSENDEWTQDRAKPVTQIVSAEAWGRADCGFTSESYQQGVLSATILYEILLGKATLYAVLVSALVLMAMVKRKDSRG |  | 0.87% | IFNγ release was observed | activity | basal levels of IFNγ release | basal levels of IFNγ release | activity | did not lead to significant TCR-mediated recognition and T-cell activation | increased IFNγ release | no activation was observed |
